The results in this text go back to article PMC11725853 (Proceedings of the National Academy of Sciences of the …, 2024).

Broadly, the Ki is the equilibrium dissociation constant of an inhibitor or competing ligand from its target. The low end stands for higher affinity, the high end for lower affinity. For orientation: stoichiometry N means a count of units in the complex or per binding partner.

The target of series [1] is trypsin-activated PDE6 isolated from bovine rod outer segment membranes (bovine) (UniProt P11541). The experiment in a line: inhibition of enzyme activity.
For series [2], the target named is trypsin-activated PDE6 from mouse retina extracts (mouse (endogenous in retina)) (UniProt P27664). The experiment in a line: inhibition of enzyme activity.
The series “mass photometry” deals with the molecule itself. The series can be described thus: mass photometry.

On to “full-length Pγr (isolated protein used in PDE6 activity assays) (from UniProt P18545 1-87) (natural protein)”, for which, in series [1], the Ki turned out to be 0.0294 nM.
For the molecule “synthetic peptide of the C-terminus of Pγc, Pγc-59-83 (from UniProt Q13956 59-83)”, the inhibition constant Ki in series [2] was found to be 8.2 µM.
On the same count and under the same terms, the value for “synthetic peptide of the 25 C-terminal residues of Pγr, Pγr-63-87 (from UniProt P18545 63-87)” was 2.5 µM.
Consider “full-length Pγc (isolated protein used in PDE6 activity assays) (from UniProt Q13956 1-83) (natural protein)”, for which, in series [1], the Ki amounted to 0.0755 nM.

B1: human cone cGMP-phosphodiesterase PDE6C catalytic subunit (residues 2-830), catalytic homodimer of holoPDE6C (enzyme, UniProt P51160 2-830, looked up)
chain: GEINQVAVEKYLEENPQFAKEYFDRKLRVEVLGEIFKNSQVPVQSSMSFSELTQVEESALCLELLWTVQEEGGTPEQGVHRALQRLAHLLQADRCSMFLCRSRNGIPEVASRLLDVTPTSKFEDNLVGPDKEVVFPLDIGIVGWAAHTKKTHNVPDVKKNSHFSDFMDKQTGYVTKNLLATPIVVGKEVLAVIMAVNKVNASEFSKQDEEVFSKYLNFVSIILRLHHTSYMYNIESRRSQILMWSANKVFEELTDVERQFHKALYTVRSYLNCERYSIGLLDMTKEKEFYDEWPIKLGEVEPYKGPKTPDGREVNFYKIIDYILHGKEEIKVIPTPPADHWTLISGLPTYVAENGFICNMMNAPADEYFTFQKGPVDETGWVIKNVLSLPIVNKKEDIVGVATFYNRKDGKPFDEHDEYITETLTQFLGWSLLNTDTYDKMNKLENRKDIAQEMLMNQTKATPEEIKSILKFQEKLNVDVIDDCEEKQLVAILKEDLPDPRSAELYEFRFSDFPLTEHGLIKCGIRLFFEINVVEKFKVPVEVLTRWMYTVRKGYRAVTYHNWRHGFNVGQTMFTLLMTGRLKKYYTDLEAFAMLAAAFCHDIDHRGTNNLYQMKSTSPLARLHGSSILERHHLEYSKTLLQDESLNIFQNLNKRQFETVIHLFEVAIIATDLALYFKKRTMFQKIVDACEQMQTEEEAIKYVTVDPTKKEIIMAMMMTACDLSAITKPWEVQSQVALMVANEFWEQGDLERTVLQQQPIPMMDRNKRDELPKLQVGFIDFVCTFVYKEFSRFHKEITPMLSGLQNNRVEWKSLADEYDAKMKVIEEEA
Turning to B1, the “stoichiometry N” value in the series “mass photometry” is 2.
